Reference: patent publication CN113735970A (INST MILITARY MEDICINE ACADEMY MILITARY SCIENCES PLA, dated 2021)

Columns and labels:
SARS-CoV-2 Beta株S-ECD蛋白 = SARS-CoV-2 Beta株S-ECD蛋白 (SARS-CoV-2 Beta株 (B.1.351), UniProt P0DTC2 14-1213)
SARS-CoV-2 Delta株S-ECD蛋白 = SARS-CoV-2 Delta株S-ECD蛋白 (SARS-CoV-2 Delta株 (B.1.617.2), UniProt P0DTC2 14-1213)
SARS-CoV-2 Gamma株S-ECD蛋白 = SARS-CoV-2 Gamma株S-ECD蛋白 (SARS-CoV-2 Gamma株 (P.1), UniProt P0DTC2 14-1213)
SARS-CoV-2 Alpha株S-ECD蛋白 = SARS-CoV-2 Alpha株S-ECD蛋白 (SARS-CoV-2 Alpha株 (B.1.1.7), UniProt P0DTC2 14-1213)

B1: 抗SARS-CoV-2全人源单克隆抗体ZWC6 (antibody, human IgG1, kappa, V domains shown)
VH: EVQLVESGGGVVQPGTSLRLSCAASGFSFSHYVMYWVRQAPGKGLDWVAIISFDGSSQYYADSVKGRFTISRDNSKDTLYLQMHSLRPEDTAVYYCAIHGGTYYYDKNILAWGQGTLVTVSS
VL: AIRMTQSPPTLSLSPGERATLSCRASQSVTNYLVWYQQKPGQAPRLLIYDTFNRATGIPARFSGSGSGTDFTLTISSLEPEDFAVYYCQQRSNWPPTFGQGTKVDIKR
Kd (SARS-CoV-2 Beta株S-ECD蛋白): 0.658 nM
koff (SARS-CoV-2 Beta株S-ECD蛋白): 0.000121 s⁻¹
kon (SARS-CoV-2 Beta株S-ECD蛋白): 184000 M⁻¹ s⁻¹
Kd (SARS-CoV-2 Delta株S-ECD蛋白): 4.21 nM
koff (SARS-CoV-2 Delta株S-ECD蛋白): 0.000305 s⁻¹
kon (SARS-CoV-2 Delta株S-ECD蛋白): 72400 M⁻¹ s⁻¹
Kd (SARS-CoV-2 Gamma株S-ECD蛋白): 1.2 nM
koff (SARS-CoV-2 Gamma株S-ECD蛋白): 0.000182 s⁻¹
kon (SARS-CoV-2 Gamma株S-ECD蛋白): 151000 M⁻¹ s⁻¹
Kd (SARS-CoV-2 Alpha株S-ECD蛋白): 0.938 nM
koff (SARS-CoV-2 Alpha株S-ECD蛋白): 0.000164 s⁻¹
kon (SARS-CoV-2 Alpha株S-ECD蛋白): 175000 M⁻¹ s⁻¹
